Here are results for 18 sequences from the DeepSol protein solubility set.

The nature of this data set: soluble on expression in E. coli; label from the status in PepcDB or PDB records.
Take “MGSDKIHHHHHHMHSHHPISHDVVISGAGPVGLFLACELRLAGLSVLILEKAEDPRSPLKRLPFGMRGLSAPTIEAFHRRDLLDAIAPPTTKDGSGKLVAAHWMQQPRRPGGHFAGIQFHLDAVDSSKWPYRLPGPAGTSMAVEMEQLETMLATRATAMGVEIRRGLGVEIFDQSDEDVTIRAGGEIFRARWLVGCDGGRSTVRKLGGFAFTGTDAEFTGYSVEVEIADPDALSPGRHYTPTGMYTYSRPGTIAMVEFDGATFHRTEPITLEHVQAVLRRVSGTDVTLTALRLATTWTDRAYQASAYRNGRVLLAGDAAHIHSPLGGQGLNLGIGDAMNLGWKLAATIRGDAPAGLLDSYFDERHPVGAQILDWSRAQVALMRPSRSSRALEAIIRDLIDTRDGATYFAERVWGVSLRYDVGGSHPLVGRSAPDFELADGTRPGERLRTGQALLLDFAARPALQALASRWSGRIAYVAEDARERLGLSALLVRPDGVVAWAADGEPDLEGAAQAASRWFGEPGQVAAYAKGTV”: the “soluble on expression in E. coli” value is recorded as “not soluble”.
The value for “SLARMSRRSRGAAGAQSVVKPETPMAQVLHQFNYCPCQYLEQNWIVPKQPWLLNLDGWRDNPNFNLWCLEEWALAPVPETAFNKPHHSLALLPPDALSTLMLTIGGALHSFAMRQVVLKKPKQCLNNVFGLDIARFLIQQGPMLLSQWPKGWQKALPDVMKEDEVERHMLKQGYAWMKFILASSSHDILLRWQFKLDQSLSQVKENTSWLVEEQRDLAYRLTKKIAKQVIPQWFHLLK” was “soluble”.
With “MYKLIDSAKFIMCVRSKRFRPDTLMDIFYLLNIQNMNCKKLFKTLLFIITTLVIVSCSKDDCDLDHIDKLQGLPALKAGTFPEEDLTLNVGEQYVYAPKASSPLDIYYQWYQNGEDMSTAPSFTFNAEHPGRSKVILELSNDLGKVTLENKVMVPGADYSKGCLIINEGWFGHGSGSISFYNYEKNSIEHWCYKNQNFGDVLGVTSQSATLWNGKLYVCSKEDNQLVVMDPKTLYAENSCGKLANYQAYEFIGLNDDYGIITHGGYFSRINLKTFETITLVSVGNTYTGTGSGIAYNGKLILNVNSSGWGSPKVYTIDIAELCSPDLKPTDKVAFQELDIATYGGTRFVQCKDGNIYTVETTKDGKNNLVRINADFSLKKVAMRDDYSPSSFGAYREASFCGTPEGIFYYIAGGKIYKATFDNPAPEETLTEYTKEGYGFYGAGIRVNPKTNELLAMYLTGDYQKNLLVRFNAATGEKISEIAYDGYYFPATFIFN”, the “soluble on expression in E. coli” value is reported as “not soluble”.
The value for “MGSDKIHHHHHHMRITEMADRVSRTGIGKLAGASHQLHTLNTNERDNSAMAETSIEWTDATWNPVAGCTILTAGCTNCYAMRMAARLEAMGTEKYQGLTRKTGGRAKWTGKVVTDPKSLAIPATWSKPRRVFVNSMSDLFHVDVPADFIRQVWTVMEETPRHTYQILTKRPEVMASVLTRGEFPVLSNVWLGTSVEDSRVLSRLDDLRRVPASIRFVSLEPLIGSVAGANLTDINWAIVGGESGPGARDMDPRWVDEIEAMCRRSGTAFFFKQWGGRNKKATGRTLNGRTYDEMPAAI” was “not soluble”.
The value for “MSLDHFQIDHIAIAVPSLNTSLPLFEQALQATASHEERLPHHHINAVFINGRGVGYELIEPHPSNVSMQRFLAKQNNRPAFHHIAFSVANIETAIGMLKEKHVRLTSELPLIGSFGRKVAFIHPSSTGGLLVELCEGKTEGHHHHHH” was “soluble”.
The value for “MGSDKIHHHHHHPVWNPDNGNGTFTNPIMWGDWPDPDVIRVGDDFYFVSTSMHYVPGCPIATSKDLVNWKMAGYAVDRYDEDARYDLKGGDRYLRGSWAATIRHHNGKFYVGFCTPSWEGEGPGHFSICIADDVKGPWERTIFPEYLYDPGLLFDDDGKVYVFHGQGTLYVTELASDAKSVKGEKVKIWDKRFKNAHEFGGGYGMEGAHAYKINGKYYLTCPAGGTEGWQICLRSDNIYGPYEHKLIMNDSGSYPPNGLHQGGMVQLKNGDWWFIIMQDRGPIGRVPHLVPVKWVDGWPMLGSGGKDIITYPKPEVGKTYPFASPATTDEFNTSSLGLQWQWNHNPDNSRWSLKERKGHMRLKASYAESLKTARNTLTQRVQGPSSEATVELDVSGLKDGNVAGFGVFEFPYAYVAVEQTNGEKKIVMCNDGQTIETIDRFEGNKIWIRARVMDVGFRAVFYYSTDGKYFLPIGNELSMGLGLVWTANRFALFNFSKEKAGEDGYTDFNWFRFTNK” was “not soluble”; that for “MPVLHNRISNDELKAKMLAESEPRTTISFYKYFTIASPQQTRDALYQVFTALDVFGRVYLAHEGINAQISVPQSKLETFRQQLYTFDPALDGVRLNIALEDDGKSFWVLRMKVRDRIVADGIDDPTFDASNVGDYLKAADVNAMLDDPDAVFIDMRNHYEYEVGHFENALEIPADTFREQLPKAVEMLREHADKKIVMYCTGGIRCEKASAWMKHNGFNKVWHIEGGIIEYARRARAQGLPVRFIGKNFVFDERMGERISDEVIAHCHQCGASCDSHTNCKNDGCHLLFIQCPQCASKFNGCCSEQCCEELALPEEEQRRRRAGRENGNKIFNKSRGRLNSKLSIPDPAE” was “not soluble”; that for “MGSDKIHHHHHHMPPLNALRAFDAVARHGSFAGAAAELHVTHWAVGKQIRLLEDWFGLPLFDRRPRGVVLTDEGAVLLNDVSHAFEHLGTAVVRLRHNTLAHRISGVVRVNVPMSFAFCWLLPRLADFHSRYPDIDVRVSTTSRKLRYVADAFDIGVRSGPEQGAGVVSRPLMPDLRVPACNPALLRQHPIQSVADLRHHTLLHSATTRSAWSHWLREAGAADLRAARHVEFDHVNLQLGAAIEGLGVALASLPLIGRDLAEGRLVCPIASPVWRADDYTLVTNADRADDAAVSAFEQWMESMASQEAG” was “not soluble”.
“MGTRNVRPGDRISAAIVAITDDSVFVATGSKVDGVIDRRELEEADGSLPYAVGDRVDLYVTAVNGQEIRLSKGLSGQGGAAVLEEARDSGVPVEGRVTGTCKGGYNVDVLRKRAFCPGSQIDLHQLEDAESVVGQTFQFLVTRVEQHGRNIVVSRRALLERERDAALATFLEGVKEGDVLEGTVTRLAPFGAFVEIAPGVDGMVLEHHHHHH”: the “soluble on expression in E. coli” value is given as “soluble”.
The entry for “MGSDKIHHHHHHMKPIKEIADQLELKDDILYPYGHYIAKIDHRFLKSLENHEDGKLILVTAVTPTPAGEGKTTTSIGLSMSLNRIGKKSIVTLREPSLGPTLGLKGGATGGGRSRVLPSDEINLHFTGDMHAVASAHNLLAAVLDSHIKHGNELKIDITRVFWKRTMDMNDRALRSIVIGLGGSANGFPREDSFIITAASEVMAILALSENMKDLKERLGKIIVALDADRKIVRISDLGIQGAMAVLLKDAINPNLVQTTEGTPALIHCGPFANIAHGTNSIIATKMAMKLSEYTVTEAGFGADLGAEKFIDFVSRVGGFYPNAAVLVATVRALKYHGGANLKNIHEENLEALKEGFKNLRVHVENLRKFNLPVVVALNRFSTDTEKEIAYVVKECEKLGVRVAVSEVFKKGSEGGVELAKAVAEAAKDVEPAYLYEMNDPVEKKIEILAKEIYRAGRVEFSDTAKNALKFIKKHGFDELPVIVAKTPKSISHDPSLRGAPEGYTFVVSDLFVSAGAGFVVALSGDINLMPGLPKKPNALNMDVDDSGNIVGVS” is “not soluble”; for “MAHHHHHHMIGKIFDNAFRIRTYNRFVCFLIGGTFAYSFSNPDMDTVYDLFPIFKQNKYAYLTFLEVNEKHSNVFEERLKDLCRFYQKQPGYLYTKIIKRIDNINDISKYIVISTWIKSENYLLACNRMYGQILINKIQNYAKYNSYLYRIVVDDSDYLPPI” it is “not soluble”; for “MQNETRTLQLDPHLHIEAYRFKGIMQKFPNHFHDYYVIGFIEKGQRYLACQDQEYIINPGDLLLFNPRDTHSCEQIDGRTLDYRCINVMPDIMEKAVKEITGSGHLPYFSQHVLFRHELTASLQELHILISEEKQALRKEELFLHLLEELIRHYSDVTFLSSVPEPSDEVKMVCE” it is “not soluble”.
On to “MNILFAVSECVPFVKSGGLADVAGALPKELKKLGVDVRIILPNYSLIPQKLRDGCTLHKVINVPLGWRNQYCGILKGEQDGITYYLIDNEYYFKRDSLYGHYDDGERFSYFSKAVLECIPHLDFEVDVLHSHDWHTAMVNFLLREKYQDNPLYERIKTVYTIHNLQFQGVFPPEVIYDLLELGDEYFHSEQLEFYGNVNFMKGGIIASDQITAVSPTYKEEIQYEFFGEKLDGLLRKYNDKLSGIVNGIDTSVYNPETDSYIKAQYDAESLYEKSENKRALQRYFGLPEKEDTPIISMVTRLTKQKGLDLVRTVFREIMEEDVQCIILGSGDSEYEQFFEWMAYEYPEKVKVYIGFNEELAHQVYAGSDLFLMPSLFEPCGLGQLIALAYGTIPIVRETGGLNDTVHSYDEETGEGNGFSFTNFNAHDMLHTIHRAIEFYHDKPVWEQLVKQAMTEDYSWEQSALAYKELYKSLME”, for which the “soluble on expression in E. coli” value is “soluble”.
Turning to “SGELLGTLSISHDVTEWHKIQQNLRDEMERRKDTEVALAQRDTILQTILDASPDSIGIFNENMVYQACNKPFVNALGISEVSDLIGKRLQDVIPVEMYTRLETSDLHALRQAEPVRYIDKVVSSDGHITWFDVVKSPFKDKA”, the “soluble on expression in E. coli” value is “not soluble”.
For “MGSDKIHHHHHHMSKKFNCSIKRIRFDENYRPADSTRLTTNFANLARGEHREENLRKTLRMINNRFNALAHWDNPTADRYSVEVDIISIDMDVAGNGHTFPVIETLKTTIVDHKENTRIDGMMGNSFSSYVRDYDFSVVLPEHFNNHSTSPVSAPPEDFGDLHGKLFQYLLNSEAYKAQFNNKLVICLSVSTSKTYHRTTNQHPVLGVEYKQDDYSLTDDYFHKMGLTVRYFMPANSAAPLAFYFAGDLLTDYTDLELISAISTMETFQKIYRPEIYNANATAGEVYQPSLKYQDYSLTQIVYDRAERSQMAVKQGKFTEEQFIKPYQAILEEWAASYDVASKKNLHQ”, the “soluble on expression in E. coli” value is given as “not soluble”.
The value for “MWKFATRLGLESVDTIAATNPREAIAAVAAGQADYACVAIENSVDGPVTPTFDALATIDGVRIFHELDLPIAFAIMQRTGAPLRRFATHPVAYQQVKTWLAANAPAAEFVPASSNAEAARMAKENIVDFAAAPARAAEVYGLDIIADGVADVTGARTRFVLVGHADT” was “not soluble”; that for “MGSDKIHHHHHHMTSQLNELVEFLHSPQPAVRQIAIDNLVGFSAGPTSKVFKNDSYRPIKDIIKMIMDPEHGTRVIIQQGVTILVNLSEDKLVRNIILSDDKKFLKFLVWKIVDLTNPNADIMCILLSNLAKDDGILAVLNIKRNSSGEEVDDGLKLAALNKEVFKSLRAMDCLMDCFVKGYDKKLTKYASFNYLAFFFADISRFKLGRMYFIEEQEYDGVVPISKLLVFTEKYDAKVRREGVASTIKNSLFDSETHERLLKDEKINLLPYILLPIASAKDSEIDEEDMFNLPDELQLLPEDKERDPIPAIICCHLESILLLCTTHAGREYLRDKSVYPLVRELHKNVENEDIGELCYRIVNMLMRGEPGAGAVEEMPSKNAEEEEEEESEEEEDDDEEDEIVEVA” was “not soluble”; that for “MLKELEVNGKRFFLAPESNFWAIGEREEVERFYRERKDALLEEMQRYRFEVDIRTAYINPTESCNRNCPYCYIPAEIRERGTKMSYEKLEEILTVLAENGVERVIFHGAEPLMVKDEIFRAMEDFDFKYGIQTNATLLEEEDAELLMKKGASVGISLDSPYKETNDYLRGKGHYDAVMRALDFFDGYRSLNIIMTVNKHNFQHLPAMVDFLAGKVSVMLANPVRGTSPGGRELRPPEGFEDYYIKAIDRAIENTKSGRRIVIGDFANILLGLVAPTSRVLQCDISPCGGGRRFFAVSADGIYPCGEFIGMEEFRANLSALSDWSSLIEKFEVVRKRTVEQIEECRNCEFRNLCGAPCPAEIYAESGTMLRKSPYCEFYKKLALKAMDVIARGDVRNVLKLERMKAIYRVEDF” was “not soluble”.
